From the supplement of paper PMC9170038

Assays:
[1] = test system: MS2 coat protein; assay: apparent KD of MS2 coat protein, switch OFF state (with FMN for OFF switches, without FMN for ON switches); designed switch direction (-1 OFF switch, 1 ON switch): -1; higher = weaker reporter binding; details: FMN input: 0 or 200 uM; Eterna round: R93 (includes R88 designs)
Summary of the method: (§1)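 Designed RNA switches were made by on-chip transcription from Illumina sequencing clusters and then titrated with SNAP-549-labelled MS2 coat protein. Twofold steps ran from 0.7 or 1.5 nM to 3 µM, each lasting 0.8–1.5 h early and 10–20 min late, in 100 mM Tris-HCl pH 7.5, 80 mM KCl, 4 mM MgCl2, without or with constant ligand. Apparent KD is the per-design median of normalised cluster binding-curve fits.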

[2] = test system: MS2 coat protein; assay: apparent KD of MS2 coat protein, switch ON state; designed switch direction (-1 OFF switch, 1 ON switch): -1; higher = weaker reporter binding; details: FMN input: 0 or 200 uM; Eterna round: R93 (includes R88 designs)
Summary of the method: as §1

Row | Sequence | apparent KD of MS2 coat protein [1] | apparent KD of MS2 coat protein [2]
1 | AAAAAAAAAGGAUAUACAGGAGGUAAGGUCGGACAAAAAAAACAUGAGGAUCACCCAUGUAGAAGGUUUAAAAA [Excls2-IX] | 0.0198 µM | 0.0345 µM
2 | AAAAAACAUGAGGAUCACCCAUGUAAGGAUAUACAAAACCCAUAUAAAAAGGGAAAAAGUAGAAGGUGCAAAAA [wbt round 1 mod 7] | 0.0231 µM | 0.0225 µM
3 | AAAAAACAUGAGGAUCACCCAUGUAAGGAUAUCAGAGAAUUAAAAAAAAAAAAAAAAAUGAGAAGGUACAAAAA [excaliber] | 0.019 µM | 0.0317 µM
4 | AAAAAACAUGAGGAUCACCCAUGUAAGGAUAUGCAAAACCCAUAUAAAAAGGGAAAAAGCAGAAGGUGCAAAAA [wbt round 1 mod 5] | 0.0332 µM | 0.0237 µM
5 | AAAAAACAUGAGGAUCACCCAUGUAAGGAUAUGCAAAAGAAAAGAAAAGAAAGAAGAAGCAGAAGGUACAAGAA [Userkaf] | 0.0312 µM | 0.035 µM
6 | AAAAAACAUGAGGAUCACCCAUGUAAGGAUAUGCUAUGGAAAAUAAAAAUAAAACAUAGCAGAAGGUACACCAA [Amethyst 81] | 0.0273 µM | 0.0189 µM
7 | AAAAAACAUGAGGAUCACCCAUGUAAGGAUAUGCUCGUCAGUGCGAAAGCACAGAUGAGCAGAAGGUACAAAAA [66%, Wbt, 43] | 0.039 µM | 0.0248 µM
8 | AAAAAACAUGAGGAUCACCCAUGUAAGGAUAUGUGAAAAAAAAAAUAAAAAAAAAAAAACAGAAGGUACAAAAA [LROPPY Exclusion 1 - v02_deltaG=3.34] | 0.0477 µM | 0.0452 µM
9 | AAAAAACAUGAGGAUCACCCAUGUCAGGAUAUACAAAAUAAAAUAAAAAUAAAAUAAAGUAGAAGGGACAAAAA [May 8] | 0.0254 µM | 0.0285 µM
10 | AAAAAACAUGAGGAUCACCCAUGUCAGGAUAUGCUAUGGAAAUAAAAAAUAAAACAUAGCAGAAGGGACACCAA [Mat - Exclusion 1 - Eli mod - D48] | 0.055 µM | 0.031 µM
11 | AAAAAACAUGAGGAUCACCCAUGUCAGGAUAUGCUCAGCAAUAUUAAAAUAAAGAACGGUAGAAGGGACAGAAA [Bilbo Confounded 23 - Jieux - Exclusion 1] | 0.0347 µM | 0.0358 µM
12 | AAAAAACAUGAGGAUCACCCAUGUCAGGAUAUUCGAAAAAAAAAAAAAAAAAAAAAAAGGAGAAGGGACGAAAA [DR Excl. 1] | 0.0568 µM | 0.0434 µM
13 | AAAAAACAUGAGGAUCACCCAUGUGAGGAUAUCCAGAAUGGAAUAAAAUAACAAGAAAGGAGAAGGCACAAAAA [Ex 1 May 37] | 0.0421 µM | 0.0677 µM
14 | AAAAAACAUGAGGAUCACCCAUGUGAGGAUAUCGGAAAAGGAAAAAAAAAAAAGAAGACGAGAAGGCACACCAA | 0.0251 µM | 0.0286 µM
15 | AAAAAACAUGAGGAUCACCCAUGUGAGGAUAUCGGUAGUGAGGCCAUAGUGUCAGUAAUGAGAAGGCACAUAAA [Brourd 613 Mod 10 - Jieux - Exclusion 1] | 0.0227 µM | 0.0254 µM
16 | AAAAAACAUGAGGAUCACCCAUGUGAGGAUAUGAUGCGAAUAAAGAAAGAAGAAAGCAUCAGAAGGCACACCUA [Disincluded 3 (MS2 Riboswitches)] | 0.0599 µM | 0.0263 µM
17 | AAAAAACAUGAGGAUCACCCAUGUGAGGAUAUGCAAAACCCAAAUAAAAAGAGAAAAAGCAGAAGGCACAAAAA [wbt round 1 mod 2] | 0.0303 µM | 0.0235 µM
18 | AAAAAACAUGAGGAUCACCCAUGUGAGGAUAUGCGAAAUAAAAAUAAAAUAAUAAAAAGCAGAAGGCACAAAAA [Amethyst 64] | 0.0406 µM | 0.0301 µM
19 | AAAAAACAUGAGGAUCACCCAUGUGAGGAUAUGCUAUGGAAAAUAAAAAUAAAACAUAGCAGAAGGCACACCAA [Denovo 16] | 0.0374 µM | 0.0314 µM
20 | AAAAAACAUGAGGAUCACCCAUGUUAGGAUAUCCUGCAGAAAAAAAAAAAAAACUGCAGGAGAAGGAGCAAGGA [Banishment 3 - Jieux - Exclusion 1] | 0.0445 µM | 0.0258 µM
21 | AAAAAAGGAGGAUAUACGUACAUGUCAAAAGACGUGAAGGGACAUGAGGAUCACCCAUGUAGAAGGCUUAAAAA [JL Stem Breaker 6] | 0.0181 µM | 0.0477 µM
22 | AAAAAGAGAGGAUAUACAUGAGGAUCACCCAUGUGAAAGACGAAAAAAAGUCUAAAAUGUAGAAGGCUCAAAAA [65%, Moding Exclusion3-cac2, 13] | 0.0897 µM | 0.0231 µM

Row | Sequence | apparent KD of MS2 coat protein [1] | apparent KD of MS2 coat protein [2]
23 | AAAAAGAGAGGAUAUACAUGAGGAUCACCCAUGUGACAUUAAAUAAAUAAAAUAAAAUGUAGAAGGCUCAAAAA [65%, Moding Exclusion3-cac2, 22] | 0.171 µM | 0.0386 µM
24 | AAAAAGCAAGGAUAUACAUGAGGAUCACCCAUGUGAAAAAAAACAAUAAGAAGAAAAAGUAGAAGGUGCAAAAA [Ex 3 Tesla 1] | 0.0188 µM | 0.024 µM
25 | AAAAAGCUAGGAUAUACAUGAAAAAAAAAAAAGUAAAAAAAACAUGAGGAUCACCCAUGUAGAAGGAGCAAAAA [water's exclusion 2 last] | 0.037 µM | 0.0404 µM
26 | AAAAAGGCAGGAUAUACAAAAAAAUUUUUAAAAAAAAAAAAACAUGAGGAUCACCCAUGUAGAAGGGCCAAAAA [Ex 2.1] | 0.0433 µM | 0.052 µM
27 | AAAAAGGCAGGAUAUACAUGAGGAUCACCCAUGUAAAGAAAGAAAGAGGUGAAAGAAAGUAGAAGGGCCAAAAA [Ex3 sub 2] | 0.072 µM | 0.0929 µM
28 | AAAAAGGCAGGAUAUACGAACAUGUCGAAAGACGUGAAGGGACAUGAGGAUCACCCAUGUAGAAGGGUCAAGAA [Mat - Exclusion 2 - JL mod - D76] | 0.0919 µM | 0.0908 µM
29 | AAAAAGGCAGGAUAUACGUACAUGUCGAAAGACGUGAAGGGACAUGAGGAUCACCCAUGUAGAAGGGUCAAGAA [Mat - Exclusion 2 - JL mod - D77] | 0.0934 µM | 0.111 µM
30 | AAAAAGGCAGGAUAUGCAUACACACGAAAAAAAACGCUGGGACAUGAGGAUCACCCAUGUAGAAGGGCCAAAAA [Dora Explored 10 - Jieux - Exclusion 2] | 0.0386 µM | 0.0572 µM
31 | AAAAAGGGAGGAUAUACAUGAGGAUCACCCAUGUAACAGACGAAAAAGAGUCUGAAAUGUAGAAGGCCCAAAAA [65%, Moding Exclusion3-cac2, 5] | 0.0484 µM | 0.0246 µM
32 | AAAAAGGUAGGAUAUACAUGAGGAUCACCCAUGUAAAAAAAAACAGAAAAAAACAAAUGUAGAAGGGCCAAAAA [Ex3 Malc#5] | 0.0356 µM | 0.0259 µM
33 | AAAAAGUCAGGAUAUACGUAAGUGCGAAAGCACAAAUGGAAACAUGAGGAUCACCCAUGUAGAAGGGACAAGAA [JL In the Red 02 (Mod)] | 0.0236 µM | 0.0367 µM
34 | AAAAAGUCAGGAUAUAGAAAAGGUCACGAAAGUGACAAAGGCUAGAAGGGACAUGAGGAUCACCCAUGUAAAAA [Mat - Mod of Eli] | 0.0288 µM | 0.0535 µM
35 | AAAAAGUCAGGAUAUGUACGAAAAAAUAAAAAAAUAAAAGUACAGAAGGGACAUGAGGAUCACCCAUGUCAGGG [EX4 393: Minimal 5] | 0.118 µM | 0.0675 µM
36 | AAAAAGUCAGGAUAUGUGGAAAAAAUAAAAAAAAUAAAAACACAGAAGGGACAUGAGGAUCACCCAUGUAAAAA [Ex 4 May 19] | 0.0472 µM | 0.0717 µM
37 | AAAAAGUGAGGAUAUACAUGAGGAUCACCCAUGUGUAUAAAAAAAUACACAAAAGAAAGUAGAAGGCACUAAAA [Ex 3 Hot] | 0.0586 µM | 0.0211 µM
38 | AAAAAGUGAGGAUAUACAUGAGGAUCACCCAUGUUAAAAAAGGAAAAAAAAAAAAAAUGUAGAAGGCGCAAAAA [water's exclusion 3] | 0.036 µM | 0.0369 µM
39 | AAAAAGUGAGGAUAUACGCUGAGGAGUAGACACAACCAGGCGUAGAAGGCACAUGAGGAUCACCCAUGUCCAAA [EX4 Malc#11] | 0.0398 µM | 0.0261 µM
40 | AAAAAGUGAGGAUAUGUCAAAGGUCACGAAAGUGACAAAGGACAGAAGGCACAUGAGGAUCACCCAUGUGAAAA [Fiskers Exclusion 4D1 65% - Early + late G segment 2] | 0.0323 µM | 0.0267 µM
41 | AAAAAGUGAGGAUAUUCGGAUAGGAAAACGAAAACCUAUCCGAAGAAGGCACAUGAGGAUCACCCAUGUGAAAA [67% Ecls-II - Early G + late G segment 1] | 0.0241 µM | 0.0275 µM
42 | AAAAAGUGAGGAUAUUCGGAUAGGAAAACGAAAACCUAUCCGAAGAAGGCACAUGAGGAUCACCCAUGUGGAAG [Mat - Exaclusion 4 - Eli mod - D47] | 0.0483 µM | 0.0372 µM
43 | AAAAAGUUAGGAUAUACAUGAGGAUCACCCAUGUGCACAUAUGGAGAAUAUGGUGGUAGUAGAAGGGACAAAAA [EX2 Malc#17] | 0.0697 µM | 0.0339 µM
44 | AAAAAUGGAGGAUAUACAUGAGGAUCACCCAUGUGUGGGUAUACUGUGUCGGCGUCAGGUAGAAGGCCAAAAAA [Gilly Gone Silly 28 - Jieux - Exclusion 3] | 0.121 µM | 0.132 µM
